Test results from patent US10806798B2, “Compound with effects of thrombolysis, free radical scavenging and thrombus-targeting” (Shanghai Lumosa Therapeutics Co., Ltd., priority 2012, dated 2020).
Bridge positions count the residues as written; N and C are the ends. Peptide text beside a SMILES is read from it. I, II: the chains in the order shown. * marks the point of attachment. X1 = CC1(C)N([O])C(c2ccc(OCC(=O)*)cc2)=[N+]([O-])C1(C)C

Legend:
rats with stroke [1] = assay: Treatment 6 h after the onset of stroke, Ie 5 μmol/kg initially then 2 μmol/kg (Zealonga scores); assay type: in vivo, SD rats; settings: Ie 5 μmol/kg on day 1 (6 h after onset), 2 μmol/kg per day for 5 days
Experimental: (§1) The efficacy was represented by neural function scores, and a lower score indicates higher efficacy. A 10% chloral hydrate solution was injected intraperitoneally into male SD rats at a dosage of 400 mg/kg body weight for anesthesia. A longitudinal open incision was made at the center of the neck, and the right common carotid artery trunk was dissected (about 3 cm in length). Carotid external artery branches were each dissected and ligated at the hyoid level, and the carotid internal artery was dissected at the swollen part of the neck. The open incision in the carotid internal artery and the proximal end of the common carotid artery were occluded respectively with noninvasive arterial clips, and the distal end of the carotid external artery was ligated. A catheter containing 0.5 mL thrombus suspension in normal saline was inserted in the carotid external artery trunk. At the same time when the clip on the carotid internal artery was released, the 0.5 mL thrombus suspension in normal saline in the catheter slowly flew from the carotid external artery to its proximal end, and then was injected into the arteries in brain through the carotid internal artery. […] The rats were compared to themselves each day, and evaluated for the degree of damage in neural function by the Zealonga method. […]

rats with stroke [2] = assay: Treatment 6 h after the onset of stroke induced by aged thrombus, Ie 2 μmol/kg (Zealonga scores); assay type: in vivo, SD rats; settings: 2 μmol/kg Ie per day for 6 days from 6 h after onset
Experimental: as §1, with “score indicates a higher efficacy.” for “score indicates higher efficacy.”, “The open incisions in the” for “The open incision in the”

rats with stroke [3] = assay: Treatment 24 h after the onset of stroke, Ie 5 μmol/kg initially then 2 μmol/kg (Zealonga scores); assay type: in vivo, SD rats; settings: Ie 5 μmol/kg on day 1 (24 h after onset), 2 μmol/kg per day for 5 days
Experimental: as §1, with “score indicates a higher efficacy.” for “score indicates higher efficacy.”, “The open incisions in the” for “The open incision in the”

[4] = FT-MS monitoring of metabolic products in brain tissues of rats treated with Ie; assay type: in vivo
Experimental: The entire rat brain was taken out and placed into a 50 mL centrifuge tube, into which 10 mL 0.9% NaCl was added, and homogenized to obtain a uniform suspension which was then centrifuged at 3000 rpm for 10 min. 5 mL supernatant was added into 10 mL methanol and evenly mixed by shaking, and centrifuged at 3000 rpm for 10 min. The supernatant was concentrated under reduced pressure until dry, followed by addition of 1 mL methanol, and again centrifuged at 12000 rpm for 10 min. The resultant supernatant was used for monitoring of the content of metabolic products in brain tissues in rats treated with compound Ie.
(MS conditions: loading: 10 μL; ionization mode: ES+; cone voltage: 30 V; mobile phase flow rate: 0.2 mL/min). According to the above data, the metabolic products M1 and M2 were assumed as the following compounds: […]

## CC(C)[C@H](NC(=O)[C@H](CC(=O)O)NC(=O)CNC(=O)[C@H](CCCNC(=N)N)NC(=O)[C@H](CCCCNC(=O)[C@H](CCCCN)NC(=O)[C@H](C)NC(=O)[C@@H]1CCCN1C(=O)[C@H](CCCNC(=N)N)NC(=O)CN)NC(=O)COc1ccc(C2=[N+]([O-])C(C)(C)C(C)(C)N2[O])cc1)C(=O)O [Ie, 1,3-dioxo-2-{4′-oxyacetyl-[N^ω-(Gly-Arg-Pro-Ala-Lys)-Lys-Arg-Gly-Asp-Val]phenyl}-4,4,5,5-tetramethylimidazoline] (I: H-GRPAK / II: X1-KRGDV-OH; amide I:C-II:1)
Rats with stroke [1]
  rats dead among the 12 rats that received the treatment: two were dead
Rats with stroke [2]
  rats dead among the 12 rats that received the treatment: six were dead
Rats with stroke [3]
  rats dead among the 12 rats that received the treatment: three were dead
[4]; concluded from metabolic products found in rat brain
  crossing of the blood-brain barrier: did indeed cross the blood-brain barrier
[4]; rats treated with compound Ie, high-resolution FT-MS
  metabolic products in brain tissues: two metabolic products M1 and M2 in the brain
